For this assay, the target named is RQR8. The experiment in a line: cell-based or functional assay.
Chain of RQR8 (chain, as listed by the source limits assumed): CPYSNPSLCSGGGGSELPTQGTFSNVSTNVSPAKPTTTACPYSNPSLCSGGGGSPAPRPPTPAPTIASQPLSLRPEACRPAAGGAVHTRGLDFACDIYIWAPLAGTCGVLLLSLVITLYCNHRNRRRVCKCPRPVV

On to rituximab (antibody), for which the complement-dependent cytotoxicity (CDC): CAR+ cells eliminated, RTX 100 µg/ml with baby rabbit complement, 2 hours came out at 85%.
